# Reference: patent US20200262877A1, “ION CHANNEL-BINDING PEPTIDES AND METHODS OF USE THEREOF” (priority 2017, published 2020)
# Assays:
# α4β2 = molecular target: T1, α4β2 (Homo sapiens, UniProt P17787+P43681); assay: Ion channel panel (IonWorks Barracuda): α4β2; format: cell-based; conditions: 100% = no change, <100% = inhibition
# T1 construct: host or cells: HEK293 or CHO
# Procedure, shortened: (§1)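 Transfected HEK293 or CHO cells were exposed for at least 5 min to peptides at 200 nM and 20 μM final, tested in duplicate, in HEPES-buffered physiological saline. Activation was taken as peptide-plus-agonist current over control current ×100, and inhibition as 1 minus that ratio ×100. Each channel's control was its own reference compound.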
# GABA = assay: Ion channel panel (IonWorks Barracuda): GABA; format: cell-based; conditions: 100% = no change, <100% = inhibition
# Procedure, shortened: as §1
# Kir2.1 = molecular target: T2, Kir2.1 (Homo sapiens, UniProt P63252); assay: Ion channel panel (IonWorks Barracuda): Kir2.1; format: cell-based; conditions: 100% = no change, <100% = inhibition
# T2 construct: host or cells: HEK293 or CHO
# Procedure, shortened: as §1
# NR2A = molecular target: T3, NR2A (Homo sapiens, UniProt Q12879); assay: Ion channel panel (IonWorks Barracuda): NR2A; format: cell-based; conditions: 100% = no change, <100% = inhibition
# T3 construct: host or cells: HEK293 or CHO
# Procedure, shortened: as §1
# Kv1.1 = molecular target: T4, Kv1.1 (Homo sapiens, UniProt Q09470); assay: cell-based; format: cell-based; conditions: 100% = no change, <100% = inhibition
# T4 construct: host or cells: HEK293 or CHO
# Procedure, shortened: as §1
# Kv1.3 = molecular target: T5, Kv1.3 (Homo sapiens, UniProt P22001); assay: cell-based; format: cell-based; conditions: 100% = no change, <100% = inhibition
# T5 construct: host or cells: HEK293 or CHO
# Procedure, shortened: as §1
# Kv1.2 = molecular target: T6, Kv1.2 (Homo sapiens, UniProt P16389); assay: cell-based; format: cell-based; conditions: 100% = no change, <100% = inhibition
# T6 construct: host or cells: HEK293 or CHO
# Procedure, shortened: as §1
# NR2B = molecular target: T7, NR2B (Homo sapiens, UniProt Q13224); assay: Ion channel panel (IonWorks Barracuda): NR2B; format: cell-based; conditions: 100% = no change, <100% = inhibition
# T7 construct: host or cells: HEK293 or CHO
# Procedure, shortened: as §1
# TRPA1 = molecular target: T8, TRPA1 (Homo sapiens, UniProt O75762); assay: Ion channel panel (IonWorks Barracuda): TRPA1; format: cell-based; conditions: 100% = no change, <100% = inhibition
# T8 construct: host or cells: HEK293 or CHO
# Procedure, shortened: as §1
# TRPV1 = molecular target: T9, TRPV1 (Homo sapiens, UniProt Q8NER1); assay: Ion channel panel (IonWorks Barracuda): TRPV1; format: cell-based; conditions: 100% = no change, <100% = inhibition
# T9 construct: host or cells: HEK293 or CHO
# Procedure, shortened: as §1
# α3β4 = molecular target: T10, α3β4 (Homo sapiens, UniProt P30926+P32297); assay: Ion channel panel (IonWorks Barracuda): α3β4; format: cell-based; conditions: 100% = no change, <100% = inhibition
# T10 construct: host or cells: HEK293 or CHO
# Procedure, shortened: as §1
# Kv2.1 = molecular target: T11, Kv2.1 (Homo sapiens, UniProt Q14721); assay: cell-based; conditions: 100% = no change, <100% = inhibition
# T11 construct: host or cells: HEK293 or CHO
# Procedure, shortened: as §1
# Cav2.1 = molecular target: T12, Cav2.1 (Homo sapiens, UniProt O00555); assay: cell-based; conditions: 100% = no change, <100% = inhibition
# T12 construct: host or cells: HEK293 or CHO
# Procedure, shortened: as §1
# Cav2.2 = molecular target: T13, Cav2.2 (Homo sapiens, UniProt Q00975); assay: cell-based; conditions: 100% = no change, <100% = inhibition
# T13 construct: host or cells: HEK293 or CHO
# Procedure, shortened: as §1
# 5HT3a = molecular target: T14, 5HT3a (Homo sapiens, UniProt P46098); assay: Ion channel panel (IonWorks Barracuda): 5HT3a; format: cell-based
# T14 construct: host or cells: HEK293 or CHO
# T14 sequence (P46098 whole entry, looked up): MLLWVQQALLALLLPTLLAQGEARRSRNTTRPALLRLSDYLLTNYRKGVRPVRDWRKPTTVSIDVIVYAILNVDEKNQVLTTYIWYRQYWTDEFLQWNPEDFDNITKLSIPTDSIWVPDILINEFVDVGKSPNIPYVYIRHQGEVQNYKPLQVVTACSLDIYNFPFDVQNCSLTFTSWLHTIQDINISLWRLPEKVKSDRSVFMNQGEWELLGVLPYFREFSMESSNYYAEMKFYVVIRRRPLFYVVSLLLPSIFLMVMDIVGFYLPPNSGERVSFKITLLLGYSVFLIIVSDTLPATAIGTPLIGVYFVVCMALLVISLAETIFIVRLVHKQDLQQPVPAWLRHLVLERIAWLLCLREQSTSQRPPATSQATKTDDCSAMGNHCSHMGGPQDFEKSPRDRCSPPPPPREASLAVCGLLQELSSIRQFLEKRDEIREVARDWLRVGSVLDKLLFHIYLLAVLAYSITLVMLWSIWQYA
# Procedure, shortened: as §1
# Nav1.7 = molecular target: T15, Nav1.7 (Homo sapiens, UniProt Q15858); assay: cell-based; format: cell-based; conditions: 100% = no change; for Activity of Nav1.7 with peptide, expressed as a percentage of the reference compound: peptide at 0.2 μM; for Activity of Nav1.7 with peptide (percentage of the reference compound): peptide at 20 μM
# T15 construct: host or cells: HEK293 or CHO
# hERG = hERG (Homo sapiens, UniProt Q12809); assay: in vitro; conditions: 100% = no change, <100% = inhibition
# Procedure, shortened: as §1
# Nav1.5 = Nav1.5 (Homo sapiens, UniProt Q14524); assay: in vitro; conditions: 100% = no change; for Activity of Nav1.5 with peptide, expressed as a percentage of the reference compound: peptide at 0.2 μM; for Activity of Nav1.5 with peptide (percentage of the reference compound): peptide at 20 μM
# Procedure, shortened: as §1
# [1] = first of two Nav1.7 columns (probably TP1)
# [2] = second of two Nav1.7 columns (probably TP2)
# [3] = first of two Nav1.5 columns (probably TP1)
# [4] = second of two Nav1.5 columns (probably TP2)
# Chain of Nav1.5 (Q14524 whole entry): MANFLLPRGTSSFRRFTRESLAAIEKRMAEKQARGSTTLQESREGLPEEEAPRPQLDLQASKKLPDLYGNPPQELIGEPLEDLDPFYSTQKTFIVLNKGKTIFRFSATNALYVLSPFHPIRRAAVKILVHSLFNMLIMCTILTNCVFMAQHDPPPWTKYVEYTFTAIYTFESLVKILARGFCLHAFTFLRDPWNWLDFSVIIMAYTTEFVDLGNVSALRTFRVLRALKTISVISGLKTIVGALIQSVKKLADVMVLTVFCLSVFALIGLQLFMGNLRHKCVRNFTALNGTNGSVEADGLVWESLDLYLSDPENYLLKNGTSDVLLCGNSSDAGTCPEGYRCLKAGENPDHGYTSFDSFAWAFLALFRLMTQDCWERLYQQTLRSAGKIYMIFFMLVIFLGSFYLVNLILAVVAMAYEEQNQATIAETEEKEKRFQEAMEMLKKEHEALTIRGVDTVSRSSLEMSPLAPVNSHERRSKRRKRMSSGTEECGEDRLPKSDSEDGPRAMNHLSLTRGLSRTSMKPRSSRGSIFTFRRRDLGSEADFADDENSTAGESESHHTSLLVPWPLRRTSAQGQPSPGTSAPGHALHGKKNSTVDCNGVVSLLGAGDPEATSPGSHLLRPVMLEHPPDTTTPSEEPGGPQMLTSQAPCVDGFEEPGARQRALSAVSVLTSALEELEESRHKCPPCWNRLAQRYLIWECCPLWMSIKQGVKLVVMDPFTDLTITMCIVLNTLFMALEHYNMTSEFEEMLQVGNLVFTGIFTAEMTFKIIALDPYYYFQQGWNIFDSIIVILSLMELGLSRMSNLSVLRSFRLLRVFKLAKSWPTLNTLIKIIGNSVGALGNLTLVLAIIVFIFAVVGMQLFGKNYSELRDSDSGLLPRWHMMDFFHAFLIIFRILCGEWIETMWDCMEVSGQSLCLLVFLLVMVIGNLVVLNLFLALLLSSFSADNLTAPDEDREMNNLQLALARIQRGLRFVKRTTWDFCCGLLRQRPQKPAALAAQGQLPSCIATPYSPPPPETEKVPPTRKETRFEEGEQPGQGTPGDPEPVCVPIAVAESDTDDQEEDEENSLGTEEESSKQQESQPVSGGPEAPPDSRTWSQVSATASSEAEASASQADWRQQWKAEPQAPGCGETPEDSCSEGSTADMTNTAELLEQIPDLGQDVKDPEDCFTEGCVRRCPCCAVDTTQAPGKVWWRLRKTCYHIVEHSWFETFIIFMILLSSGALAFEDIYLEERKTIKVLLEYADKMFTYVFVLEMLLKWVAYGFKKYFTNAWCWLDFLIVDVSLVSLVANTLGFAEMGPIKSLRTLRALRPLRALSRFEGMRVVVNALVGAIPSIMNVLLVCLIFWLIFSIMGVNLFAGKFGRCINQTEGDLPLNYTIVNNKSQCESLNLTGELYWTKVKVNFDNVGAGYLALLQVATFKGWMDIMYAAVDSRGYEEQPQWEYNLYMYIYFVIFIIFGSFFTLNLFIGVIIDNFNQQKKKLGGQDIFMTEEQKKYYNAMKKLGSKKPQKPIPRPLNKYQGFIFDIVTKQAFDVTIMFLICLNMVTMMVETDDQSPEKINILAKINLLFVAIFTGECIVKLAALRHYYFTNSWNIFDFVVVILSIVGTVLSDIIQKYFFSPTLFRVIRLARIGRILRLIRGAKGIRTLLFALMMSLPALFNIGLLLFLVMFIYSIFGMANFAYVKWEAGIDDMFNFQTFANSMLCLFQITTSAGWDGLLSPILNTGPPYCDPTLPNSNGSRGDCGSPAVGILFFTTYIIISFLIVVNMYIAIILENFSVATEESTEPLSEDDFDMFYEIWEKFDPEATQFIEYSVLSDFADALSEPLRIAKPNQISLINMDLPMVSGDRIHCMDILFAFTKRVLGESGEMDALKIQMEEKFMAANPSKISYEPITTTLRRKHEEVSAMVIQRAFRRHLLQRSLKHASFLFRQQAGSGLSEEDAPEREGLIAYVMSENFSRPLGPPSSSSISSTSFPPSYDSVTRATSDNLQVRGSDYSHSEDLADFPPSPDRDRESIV
# T15 sequence (Q15858 whole entry): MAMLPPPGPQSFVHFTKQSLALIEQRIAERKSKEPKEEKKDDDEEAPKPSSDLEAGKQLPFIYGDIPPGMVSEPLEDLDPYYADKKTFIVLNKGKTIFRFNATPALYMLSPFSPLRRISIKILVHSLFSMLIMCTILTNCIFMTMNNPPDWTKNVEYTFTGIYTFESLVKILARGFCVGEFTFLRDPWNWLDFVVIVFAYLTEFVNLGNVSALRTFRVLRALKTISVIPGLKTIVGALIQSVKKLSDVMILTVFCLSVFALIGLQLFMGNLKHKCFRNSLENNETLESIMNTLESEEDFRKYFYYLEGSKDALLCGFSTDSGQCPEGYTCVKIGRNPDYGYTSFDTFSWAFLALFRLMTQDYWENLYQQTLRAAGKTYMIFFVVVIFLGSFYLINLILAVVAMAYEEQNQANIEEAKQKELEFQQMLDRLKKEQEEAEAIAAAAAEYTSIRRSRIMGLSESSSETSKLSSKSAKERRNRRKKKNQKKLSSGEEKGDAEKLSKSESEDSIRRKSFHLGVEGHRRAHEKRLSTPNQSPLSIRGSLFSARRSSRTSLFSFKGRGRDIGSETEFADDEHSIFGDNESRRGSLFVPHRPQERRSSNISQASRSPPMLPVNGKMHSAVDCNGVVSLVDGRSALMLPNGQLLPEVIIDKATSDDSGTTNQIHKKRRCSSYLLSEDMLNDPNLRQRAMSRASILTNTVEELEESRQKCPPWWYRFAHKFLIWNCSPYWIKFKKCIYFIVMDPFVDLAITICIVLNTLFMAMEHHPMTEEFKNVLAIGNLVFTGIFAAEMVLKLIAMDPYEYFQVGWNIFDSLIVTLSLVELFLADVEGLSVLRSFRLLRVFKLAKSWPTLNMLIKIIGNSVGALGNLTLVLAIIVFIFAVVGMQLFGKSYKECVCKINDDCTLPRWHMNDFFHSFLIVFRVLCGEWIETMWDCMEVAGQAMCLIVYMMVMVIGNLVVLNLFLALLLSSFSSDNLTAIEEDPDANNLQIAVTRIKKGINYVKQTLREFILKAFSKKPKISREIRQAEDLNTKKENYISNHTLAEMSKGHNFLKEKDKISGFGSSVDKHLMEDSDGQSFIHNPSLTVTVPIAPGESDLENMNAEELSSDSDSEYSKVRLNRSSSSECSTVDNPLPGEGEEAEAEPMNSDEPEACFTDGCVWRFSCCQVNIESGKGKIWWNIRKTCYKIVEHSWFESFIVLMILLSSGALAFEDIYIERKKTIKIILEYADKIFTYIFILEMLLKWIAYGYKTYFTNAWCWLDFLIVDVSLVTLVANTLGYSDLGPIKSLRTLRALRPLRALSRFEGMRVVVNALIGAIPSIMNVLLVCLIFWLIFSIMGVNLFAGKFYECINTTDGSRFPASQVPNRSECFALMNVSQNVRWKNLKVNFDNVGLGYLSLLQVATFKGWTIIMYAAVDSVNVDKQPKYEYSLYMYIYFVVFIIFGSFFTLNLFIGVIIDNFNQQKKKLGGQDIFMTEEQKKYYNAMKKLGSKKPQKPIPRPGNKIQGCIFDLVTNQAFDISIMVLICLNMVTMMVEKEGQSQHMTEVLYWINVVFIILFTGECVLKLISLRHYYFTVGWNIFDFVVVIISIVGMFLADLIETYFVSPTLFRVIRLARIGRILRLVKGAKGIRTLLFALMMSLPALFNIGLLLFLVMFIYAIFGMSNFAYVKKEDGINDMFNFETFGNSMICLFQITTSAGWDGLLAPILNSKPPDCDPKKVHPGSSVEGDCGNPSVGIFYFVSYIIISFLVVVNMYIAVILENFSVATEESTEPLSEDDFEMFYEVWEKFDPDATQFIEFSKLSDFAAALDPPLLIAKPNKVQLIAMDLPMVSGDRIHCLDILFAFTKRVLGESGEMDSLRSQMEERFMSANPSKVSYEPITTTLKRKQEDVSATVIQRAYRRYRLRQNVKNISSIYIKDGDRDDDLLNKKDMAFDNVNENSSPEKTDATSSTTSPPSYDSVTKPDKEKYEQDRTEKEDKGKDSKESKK
# T1 sequence (P43681 29-627): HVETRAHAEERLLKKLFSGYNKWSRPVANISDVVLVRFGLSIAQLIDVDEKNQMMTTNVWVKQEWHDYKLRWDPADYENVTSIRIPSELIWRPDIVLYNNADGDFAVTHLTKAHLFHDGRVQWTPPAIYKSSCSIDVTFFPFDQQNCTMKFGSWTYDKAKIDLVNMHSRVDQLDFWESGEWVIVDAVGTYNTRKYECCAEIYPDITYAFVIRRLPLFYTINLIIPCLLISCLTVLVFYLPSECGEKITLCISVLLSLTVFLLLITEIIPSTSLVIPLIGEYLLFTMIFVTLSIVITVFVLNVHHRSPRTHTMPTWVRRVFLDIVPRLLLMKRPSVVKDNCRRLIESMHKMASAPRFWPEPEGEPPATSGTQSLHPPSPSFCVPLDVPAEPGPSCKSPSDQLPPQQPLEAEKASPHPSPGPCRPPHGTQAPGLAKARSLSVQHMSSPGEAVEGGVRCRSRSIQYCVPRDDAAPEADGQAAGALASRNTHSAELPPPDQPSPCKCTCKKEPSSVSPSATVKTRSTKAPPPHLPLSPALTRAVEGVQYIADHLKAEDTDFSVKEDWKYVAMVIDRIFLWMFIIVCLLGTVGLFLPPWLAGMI
# T1 sequence (P17787 26-502): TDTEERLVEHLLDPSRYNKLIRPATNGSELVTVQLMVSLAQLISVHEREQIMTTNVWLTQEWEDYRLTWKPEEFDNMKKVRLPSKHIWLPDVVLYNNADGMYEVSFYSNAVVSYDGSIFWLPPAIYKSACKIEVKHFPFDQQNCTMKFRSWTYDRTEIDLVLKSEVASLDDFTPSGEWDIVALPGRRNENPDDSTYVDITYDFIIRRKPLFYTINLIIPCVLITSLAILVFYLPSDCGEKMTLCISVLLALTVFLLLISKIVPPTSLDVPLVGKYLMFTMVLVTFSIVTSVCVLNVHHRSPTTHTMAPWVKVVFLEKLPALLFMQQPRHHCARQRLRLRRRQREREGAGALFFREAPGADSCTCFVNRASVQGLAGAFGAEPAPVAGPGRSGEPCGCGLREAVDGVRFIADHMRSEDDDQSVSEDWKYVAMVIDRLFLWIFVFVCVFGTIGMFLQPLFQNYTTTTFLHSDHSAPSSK
substance,measurement,setting,value
13 (GSQKILSNRCNNSSECIPHCIRIFGTRAAKCINRKCYCYP) [compound 13],"Activity of a4b2 with peptide, expressed as a percentage of the reference compound",α4β2; peptide at 0.2 μM,97%
same,Activity of a4b2 with peptide (percentage of the reference compound),α4β2; peptide at 20 μM,80%
same,"Activity of GABA with peptide, expressed as a percentage of the reference compound",GABA; peptide at 0.2 μM,107%
same,Activity of GABA with peptide (percentage of the reference compound),GABA; peptide at 20 μM,93%
same,"Activity of Kir2.1 with peptide, expressed as a percentage of the reference compound",Kir2.1; peptide at 0.2 μM,97%
same,Activity of Kir2.1 with peptide (percentage of the reference compound),Kir2.1; peptide at 20 μM,98%
same,"Activity of NR2A with peptide, expressed as a percentage of the reference compound",NR2A; peptide at 0.2 μM,94%
same,Activity of NR2A with peptide (percentage of the reference compound),NR2A; peptide at 20 μM,108%
same,"Activity of Kv1.1 with peptide, expressed as a percentage of the reference compound",Kv1.1; peptide at 0.2 μM,107%
same,Activity of Kv1.1 with peptide (percentage of the reference compound),Kv1.1; peptide at 20 μM,79%
same,"Activity of Kv1.3 with peptide, expressed as a percentage of the reference compound",Kv1.3; peptide at 0.2 μM,68%
same,Activity of Kv1.3 with peptide (percentage of the reference compound),Kv1.3; peptide at 20 μM,64%
same,"Activity of Kv1.2 with peptide, expressed as a percentage of the reference compound",Kv1.2; peptide at 0.2 μM,88%
same,Activity of Kv1.2 with peptide (percentage of the reference compound),Kv1.2; peptide at 20 μM,40%
same,"Activity of NR2B with peptide, expressed as a percentage of the reference compound",NR2B; peptide at 0.2 μM,122%
same,Activity of NR2B with peptide (percentage of the reference compound),NR2B; peptide at 20 μM,117%
same,"Activity of TRPA1 with peptide, expressed as a percentage of the reference compound",TRPA1; peptide at 0.2 μM,129%
same,Activity of TRPA1 with peptide (percentage of the reference compound),TRPA1; peptide at 20 μM,113%
same,"Activity of TRPV1 with peptide, expressed as a percentage of the reference compound",TRPV1; peptide at 0.2 μM,97%
same,Activity of TRPV1 with peptide (percentage of the reference compound),TRPV1; peptide at 20 μM,88%
same,"Activity of a3b4 with peptide, expressed as a percentage of the reference compound",α3β4; peptide at 0.2 μM,103%
same,Activity of a3b4 with peptide (percentage of the reference compound),α3β4; peptide at 20 μM,83%
same,"Activity of Kv2.1 with peptide, expressed as a percentage of the reference compound",Kv2.1; peptide at 0.2 μM,104%
same,Activity of Kv2.1 with peptide (percentage of the reference compound),Kv2.1; peptide at 20 μM,116%
same,"Activity of Cav2.1 with peptide, expressed as a percentage of the reference compound",Cav2.1; peptide at 0.2 μM,109%
same,Activity of Cav2.1 with peptide (percentage of the reference compound),Cav2.1; peptide at 20 μM,100%
same,"Activity of Cav2.2 with peptide, expressed as a percentage of the reference compound",Cav2.2; peptide at 0.2 μM,121%
same,Activity of Cav2.2 with peptide (percentage of the reference compound),Cav2.2; peptide at 20 μM,100%
same,Activity of 5HT3a with peptide (percentage of the reference compound),5HT3a,84%
same,"Activity of 5HT3a with peptide, expressed as a percentage of the reference compound",5HT3a,96%
same,"Activity of Nav1.7 with peptide, expressed as a percentage of the reference compound",Nav1.7; [1],61%
same,"Activity of Nav1.7 with peptide, expressed as a percentage of the reference compound",Nav1.7; [2],66%
same,Activity of Nav1.7 with peptide (percentage of the reference compound),Nav1.7; [1],71%
same,Activity of Nav1.7 with peptide (percentage of the reference compound),Nav1.7; [2],62%
same,"Activity of hERG with peptide, expressed as a percentage of the reference compound",hERG; peptide at 0.2 μM,89%
same,Activity of hERG with peptide (percentage of the reference compound),hERG; peptide at 20 μM,67%
same,"Activity of Nav1.5 with peptide, expressed as a percentage of the reference compound",Nav1.5; [3],98%
same,"Activity of Nav1.5 with peptide, expressed as a percentage of the reference compound",Nav1.5; [4],95%
same,Activity of Nav1.5 with peptide (percentage of the reference compound),Nav1.5; [3],97%
same,Activity of Nav1.5 with peptide (percentage of the reference compound),Nav1.5; [4],101%
